In patent US20190359677A1 (published 2019):

T1: MCV trLT (truncated large T antigen of Merkel cell polyomavirus) peptide on HLA-A*02:01 (human)
T1 peptide: SMFDEVDEA

T2: MCV trLT and sT (large T and small T antigens of Merkel cell polyomavirus, shared exon 1) peptide on … (human)
T2 peptide: KLLEIAPNC

B1: SMF-48 (TCR, V domains shown)
Valpha: AQTVTQSQPEMSVQEAETVTLSCTYDTSESNYYLFWYKQPPSRQMILVIRQEAYKQQNATENRFSVNFQKAAKSFSLKISDSQLGDTAMYFCAFMKRGNRDDKIIFGKGTRLHILP
Vbeta: GAVVSQHPSWVICKSGTSVKIECRSLDFQATTMFWYRQFPKQSLMLMATSNEGSKATYEQGVEKDKFLINHASLTLSTLTVTSAHPEDSSFYICSASPTSGRRTQYFGPGTRLTVL
B2: SMF-72 (TCR, V domains shown)
Valpha: AQTVTQSQPEMSVQEAETVTLSCTYDTSESDYYLFWYKQPPSRQMILVIRQEAYKQQNATENRFSVNFQKAAKSFSLKISDSQLGDAAMYFCAYRGTSGTYKYIFGTGTRLKVLA
Vbeta: DTGVSQDPRHKITKRGQNVTFRCDPISEHNRLYWYRQTLGQGPEFLTYFQNEAQLEKSRLLSDRFSAERPKGSFSTLEIQRTEQGDSAMYLCASSKLAGKNIQYFGAGTRLSVL
B3: KLL-85 (TCR, V domains shown)
Valpha: GQQLNQSPQSMFIQEGEDVSMNCTSSSIFNTWLWYKQDPGEGPVLLIALYKAGELTSNGRLTAQFGITRKDSFLNISASIPSDVGIYFCAGQLNQGAQKLVFGQGTRLTINP
Vbeta: DAGVIQSPRHEVTEMGQEVTLRCKPISGHNSLFWYRQTMMRGLELLIYFNNNVPIDDSGMPEDRFSAKMPNASFSTLKIQPSEPRDSAVYFCASSFYSADTQYFGPGTRLTVL

Key:
[1] = target: T1, MCV trLT (truncated large T antigen of …); assay: cytokine release
[2] = target: T2, MCV trLT and sT (large T and small T …); assay: cytokine release

Binder | binding result [1] | binding result [2]
B1 | recognises | no recognition
B2 | recognises | no recognition
B3 |  | recognises
